Experimental data: patent US9187525B2, “Methods of treating ophthalmic diseases using NPR-B agonists” (Shire Orphan Therapies GmbH, dated 2015)
Numbered stars: 1 amine (or outer) side, 2 acyl side, 3 side chain; on linkers, the order of the positions; unused ones are H or OH. Square brackets hold non-standard residues; d marks the D form. Ends that are not written are not given here. * marks the point of attachment. Nbhp = rac-(2,3-dihydroxy-propylamino)-acetic acid, O=C(CN(CC(O)CO[*:3])[*:1])[*:2]; Nhpr = (3-hydroxy-propylamino)acetic acid, O=C(CN(CCCO[*:3])[*:1])[*:2]; Gluc‑Aoa = (2,3,4,5,6-pentahydroxyhexylidenaminooxy)-acetic acid; Paa = piperazin-1-yl-acetic acid, O=C(CN1CCN([*:1])CC1)[*:2]; Sni = (S)-nipecotic acid, O=C([C@H]1CCCN([*:1])C1)[*:2]; Hyp = O=C(O)[C@@H]1C[C@@H](O)CN1; d(β3hL) = CC(C)C[C@@H](N)CC(=O)O; dAoc(2) = CCCCCC[C@@H](N)C(=O)O; 2Thi = N[C@@H](Cc1cccs1)C(=O)O; AR‑314‑102 = not defined here; Aoc(2) = CCCCCC[C@H](N)C(=O)O; NMeL = CN[C@@H](CC(C)C)C(=O)O; AR‑314‑87 = not defined here; Chg = N[C@H](C(=O)O)C1CCCCC1; d(hSer) = N[C@H](CCO)C(=O)O; lys(Me2) = not defined here; orn(Me2) = not defined here; dDab = NCC[C@@H](N)C(=O)O; Nle = CCCC[C@H](N)C(=O)O; Octanoyl = CCCCCCCC(=O)*; 1913 = not defined here; Che = not defined here; Hexanoyl = CCCCCC(=O)*; leu = not defined here; Occ = octanoic acid

T1: natriuretic peptide receptor-B (human)
T1 chain: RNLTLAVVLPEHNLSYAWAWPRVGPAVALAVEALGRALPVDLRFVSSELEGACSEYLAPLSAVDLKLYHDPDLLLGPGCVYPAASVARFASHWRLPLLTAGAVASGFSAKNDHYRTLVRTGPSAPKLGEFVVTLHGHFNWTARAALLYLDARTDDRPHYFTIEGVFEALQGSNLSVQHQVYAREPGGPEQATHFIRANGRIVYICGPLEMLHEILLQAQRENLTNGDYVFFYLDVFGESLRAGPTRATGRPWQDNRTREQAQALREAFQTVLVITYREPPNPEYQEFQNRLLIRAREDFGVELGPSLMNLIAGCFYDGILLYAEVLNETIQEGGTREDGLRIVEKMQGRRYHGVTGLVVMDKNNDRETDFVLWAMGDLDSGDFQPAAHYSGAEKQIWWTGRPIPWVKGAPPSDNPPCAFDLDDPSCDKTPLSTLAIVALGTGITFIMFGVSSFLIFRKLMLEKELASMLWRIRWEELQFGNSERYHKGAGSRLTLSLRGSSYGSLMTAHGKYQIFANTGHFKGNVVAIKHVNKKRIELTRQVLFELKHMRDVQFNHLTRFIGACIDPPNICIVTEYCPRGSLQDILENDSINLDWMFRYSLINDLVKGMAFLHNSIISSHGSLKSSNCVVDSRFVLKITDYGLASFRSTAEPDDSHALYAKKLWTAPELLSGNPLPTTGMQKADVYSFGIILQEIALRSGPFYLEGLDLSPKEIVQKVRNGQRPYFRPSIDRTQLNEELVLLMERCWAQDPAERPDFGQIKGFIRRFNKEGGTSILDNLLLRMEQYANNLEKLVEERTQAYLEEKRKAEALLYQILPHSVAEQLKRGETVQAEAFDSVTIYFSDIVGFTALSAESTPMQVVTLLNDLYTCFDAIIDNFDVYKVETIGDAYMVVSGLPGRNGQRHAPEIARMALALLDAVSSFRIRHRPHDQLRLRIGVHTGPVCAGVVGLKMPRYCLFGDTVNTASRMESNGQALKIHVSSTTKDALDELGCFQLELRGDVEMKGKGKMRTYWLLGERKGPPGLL


Biological target: T1, natriuretic peptide receptor-B
Assay: cell-based or functional assay

Row | Binder | EC50 group, cGMP in GTM-3 cells
1 | [Occ][Sni]FLL[Hyp][NMeL][Nle]R[Che] (not fully specified (residue 4); printed as Occ-Sni-Phe-leu-Leu-Hyp-Nml-Nle-Arg-Che; reading uncertain) [JAL-1755] | ≤ 15 µM
2 | [Occ][Sni]FLL[Hyp][NMeL][d(β3hL)]R[Che] (not fully specified (residue 4); printed as Occ-Sni-Phe-leu-Leu-Hyp-Nml-Ble-Arg-Che; reading uncertain) [JAL-1756] | ≤ 5 µM
3 | Octanoyl-[Sni]F[orn(Me2)]L[Hyp][NMeL]VR[Che] (reading uncertain; also: printed as Occ-Sni-Phe-orn(Me2)-Leu-Hyp-Nml-Val-Arg-Che) [JAL-1778] | ≤ 5 µM
4 | Octanoyl-[Sni]F[lys(Me2)]L[Hyp][NMeL]DR[Che] (reading uncertain; also: printed as Occ-Sni-Phe-lys(Me2)-Leu-Hyp-Nml-Asp-Arg-Che) [JAL-1777] | ≤ 1 µM
5 | [Occ][Sni]FLL[Hyp][NMeL][2Thi]R[Che] (not fully specified (residue 4); printed as Occ-Sni-Phe-leu-Leu-Hyp-Nml-Thi-Arg-Che; reading uncertain) [JAL-1758] | ≤ 15 µM
6 | Octanoyl-[Sni]F[leu]L[Hyp][NMeL][Chg]R[Che] (reading uncertain; also: printed as Occ-Sni-Phe-leu-Leu-Hyp-Nml-Chg-Arg-Che) [JAL-1763] | ≤ 15 µM
7 | [AR‑314‑102][leu]L[Hyp][NMeL]DRI-NH2 (reading uncertain; also: printed as (AR-314-102)-leu-Leu-Hyp-Nml-Asp-Arg-Ile-NH2) [JAL-1774] | ≤ 1 µM
8 | Hexanoyl-[dA][dA]F[Paa]KLDRI-NH2 [JAL-0731] | ≤ 15 µM
9 | Octanoyl-[Sni]F[orn(Me2)]L[Hyp][NMeL]VRI-NH2 (reading uncertain; also: printed as Occ-Sni-Phe-orn(Me2)-Leu-Hyp-Nml-Val-Arg-Ile-NH2) [JAL-1782] | ≤ 1 µM
10 | Octanoyl-[Sni]F[orn(Me2)]L[Hyp][NMeL]DR[Che] (reading uncertain; also: printed as Occ-Sni-Phe-orn(Me2)-Leu-Hyp-Nml-Asp-Arg-Che) [JAL-1776] | ≤ 1 µM
11 | Octanoyl-[Sni]F[lys(Me2)]L[Hyp][NMeL]VR[Che] (reading uncertain; also: printed as Occ-Sni-Phe-lys(Me2)-Leu-Hyp-Nml-Val-Arg-Che) [JAL-1779] | ≤ 1 µM
12 | [AR‑314‑87][leu]L[Hyp][NMeL]DRI-NH2 (reading uncertain; also: printed as (AR-314-87)-leu-Leu-Hyp-Nml-Asp-Arg-Ile-NH2) [JAL-1765-2] | ≤ 1 µM
13 | Octanoyl-[dA]FGLKLDRI-NH2 [JAL-0738] | ≤ 15 µM
14 | Octanoyl-[Sni]F[lys(Me2)]L[Hyp][NMeL]DRI-NH2 (reading uncertain; also: printed as Occ-Sni-Phe-lys(Me2)-Leu-Hyp-Nml-Asp-Arg-Ile-NH2) [JAL-1781] | ≤ 5 µM

Results, then the binder that gave them:

Row | EC50 group, cGMP in GTM-3 cells | Binder
15 | ≤ 5 µM | Octanoyl-[Nhpr]FLL[Hyp][NMeL]DRI-NH2 (not fully specified (some residues); printed as Occ-Nhpr-Phe-leu-Leu-Hyp-Nml-Asp-Arg-Ile-NH2) [JAL-1798]
16 | ≤ 5 µM | Octanoyl-[d(hSer)]FLL[Hyp][NMeL]DRI-NH2 (not fully specified (some residues); printed as Occ-hse-Phe-leu-Leu-Hyp-Nml-Asp-Arg-Ile-NH2) [JAL-1801]
17 | ≤ 5 µM | Octanoyl-SFLL[Hyp][NMeL]DRI-NH2 (not fully specified (some residues); printed as Occ-ser-Phe-leu-Leu-Hyp-Nml-Asp-Arg-Ile-NH2) [JAL-1800]
18 | ≤ 5 µM | Octanoyl-[Sni]F[dDab](Me2)L[Hyp][NMeL]VRI-NH2 [JAL-1786]
19 | ≤ 1 µM | Octanoyl-[Sni]F[dDab](Me2)L[Hyp][NMeL]DRI-NH2 [JAL-1785]
20 | ≤ 5 µM | Octanoyl-[Nbhp]FLL[Hyp][NMeL]DRI-NH2 (not fully specified (some residues); printed as Occ-Nbhp-Phe-leu-Leu-Hyp-Nml-Asp-Arg-Ile-NH2) [JAL-1799]
21 | ≤ 5 µM | {Gluc‑Aoa}-[Aoc(2)][Sni]FLL[Hyp][NMeL]DRI-NH2 (not fully specified (some residues); printed as Gluc-Aoa-Hgl-Sni-Phe-leu-Leu-Hyp-Nml-Asp-Arg-Ile-NH2) [JAL-1802]
22 | ≤ 5 µM | 1913-[Aoc(2)][Sni]FLL[Hyp][NMeL]DRI-NH2 (not fully specified (some residues); printed as (1913)-Hgl-Sni-Phe-leu-Leu-Hyp-Nml-Asp-Arg-Ile-NH2; reading uncertain) [JAL-1804]
23 | ≤ 1 µM | Octanoyl-[Sni]F[dDab](Me2)L[Hyp][NMeL]VR[Che] (reading uncertain; also: printed as Occ-Sni-Phe-dab(Me2)-Leu-Hyp-Nml-Val-Arg-Che) [JAL-1784]
24 | ≤ 15 µM | Octanoyl-[Sni]F[dK](Me2)L[Hyp][NMeL]VRI-NH2 [JAL-1783]
25 | ≤ 1 µM | {Gluc‑Aoa}-[dAoc(2)][Sni]FLL[Hyp][NMeL]DRI-NH2 (not fully specified (some residues); printed as Gluc-Aoa-hgl-Sni-Phe-leu-Leu-Hyp-Nml-Asp-Arg-Ile-NH2) [JAL-1803]
